The results in this text go back to patent US20130336893A1 (Sanofi, published 2013).

*1 amine or outer side, *2 acyl side, *3 side chain or, on linkers, in order; H or OH if unused. Where no end group is shown, it is not given here. [ ]: non-standard residue; d: D form. Ser(Me) = COC[C@H](N[*:1])C(=O)[*:2]; Cysteamide = C(CS[*:3])N[*:1]

Assay [1] addresses human glucagon receptor (human, UniProt P47871 26-477). The experiment in a line: cell-based or functional assay.
In assay [2] the target is human GLP-1 receptor (human, UniProt P43220 24-463). The experiment in a line: cell-based or functional assay.

Sequence of human glucagon receptor (P47871 26-477): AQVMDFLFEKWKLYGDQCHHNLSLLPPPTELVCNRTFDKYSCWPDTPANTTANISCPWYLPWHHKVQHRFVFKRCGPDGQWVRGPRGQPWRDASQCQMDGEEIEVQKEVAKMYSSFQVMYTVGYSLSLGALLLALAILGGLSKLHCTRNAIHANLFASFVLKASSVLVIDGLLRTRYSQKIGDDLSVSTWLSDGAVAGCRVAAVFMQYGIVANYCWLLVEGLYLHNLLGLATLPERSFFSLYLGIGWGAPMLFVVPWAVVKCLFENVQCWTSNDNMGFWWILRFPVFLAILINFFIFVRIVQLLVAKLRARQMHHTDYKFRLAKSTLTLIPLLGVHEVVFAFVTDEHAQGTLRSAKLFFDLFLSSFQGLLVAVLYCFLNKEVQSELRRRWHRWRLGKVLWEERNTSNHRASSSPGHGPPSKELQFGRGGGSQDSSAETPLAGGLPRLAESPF

In the case of HSEGTFTSDLSKQMDSRRAQDFIEWLKNGGPSSGAPPPS-NH2 [SEQ ID NO: (10)], in assay [1], the “EC50 hGlucagonR (cAMP formation)” value is 16.7 nM. For the same molecule, in assay [2], the “EC50 hGLP-1R (cAMP formation)” value was 0.0313 nM.

With HSQGTFTSDLSKQMDSRRAQDFIEWLKNGGPSSGAPPPS-Cysteamide [SEQ ID NO: (8)], the “EC50 hGlucagonR (cAMP formation)” value in assay [1] is 0.0351 nM. For the same molecule, the “EC50 hGLP-1R (cAMP formation)” value in assay [2] stood at 0.0203 nM.

B1: SEQ ID NO: (33) (peptide)
peptide: H[dS]QGTFTSDLSKQMDSRRAQDFIEWLKKGGPSSGEPPPS-NH2
modifications: N-terminus assumed
SMILES: CC[C@H](C)[C@H](NC(=O)[C@H](Cc1ccccc1)NC(=O)[C@H](CC(=O)O)NC(=O)[C@H](CCC(N)=O)NC(=O)[C@H](C)NC(=O)[C@H](CCCNC(=N)N)NC(=O)[C@H](CCCNC(=N)N)NC(=O)[C@H](CO)NC(=O)[C@H](CC(=O)O)NC(=O)[C@H](CCSC)NC(=O)[C@H](CCC(N)=O)NC(=O)[C@H](CCCCN)NC(=O)[C@H](CO)NC(=O)[C@H](CC(C)C)NC(=O)[C@H](CC(=O)O)NC(=O)[C@H](CO)NC(=O)[C@@H](NC(=O)[C@H](Cc1ccccc1)NC(=O)[C@@H](NC(=O)CNC(=O)[C@H](CCC(N)=O)NC(=O)[C@@H](CO)NC(=O)[C@@H](N)Cc1c[nH]cn1)[C@@H](C)O)[C@@H](C)O)C(=O)N[C@@H](CCC(=O)O)C(=O)N[C@@H](Cc1c[nH]c2ccccc12)C(=O)N[C@@H](CC(C)C)C(=O)N[C@@H](CCCCN)C(=O)N[C@@H](CCCCN)C(=O)NCC(=O)NCC(=O)N1CCC[C@H]1C(=O)N[C@@H](CO)C(=O)N[C@@H](CO)C(=O)NCC(=O)N[C@@H](CCC(=O)O)C(=O)N1CCC[C@H]1C(=O)N1CCC[C@H]1C(=O)N1CCC[C@H]1C(=O)N[C@@H](CO)C(N)=O
On to B1, for which, in assay [1], the “EC50 hGlucagonR (cAMP formation)” value was found to be 0.347 nM. For the same molecule, the “EC50 hGLP-1R (cAMP formation)” value in assay [2] worked out at 0.138 nM.

B2: SEQ ID NO: (31) (peptide)
peptide: H[dS]QGTFTSDLSKQMDSRRARDFIEWLKNGGPSSGAPPPS-NH2
modifications: N-terminus assumed
SMILES: CC[C@H](C)[C@H](NC(=O)[C@H](Cc1ccccc1)NC(=O)[C@H](CC(=O)O)NC(=O)[C@H](CCCNC(=N)N)NC(=O)[C@H](C)NC(=O)[C@H](CCCNC(=N)N)NC(=O)[C@H](CCCNC(=N)N)NC(=O)[C@H](CO)NC(=O)[C@H](CC(=O)O)NC(=O)[C@H](CCSC)NC(=O)[C@H](CCC(N)=O)NC(=O)[C@H](CCCCN)NC(=O)[C@H](CO)NC(=O)[C@H](CC(C)C)NC(=O)[C@H](CC(=O)O)NC(=O)[C@H](CO)NC(=O)[C@@H](NC(=O)[C@H](Cc1ccccc1)NC(=O)[C@@H](NC(=O)CNC(=O)[C@H](CCC(N)=O)NC(=O)[C@@H](CO)NC(=O)[C@@H](N)Cc1c[nH]cn1)[C@@H](C)O)[C@@H](C)O)C(=O)N[C@@H](CCC(=O)O)C(=O)N[C@@H](Cc1c[nH]c2ccccc12)C(=O)N[C@@H](CC(C)C)C(=O)N[C@@H](CCCCN)C(=O)N[C@@H](CC(N)=O)C(=O)NCC(=O)NCC(=O)N1CCC[C@H]1C(=O)N[C@@H](CO)C(=O)N[C@@H](CO)C(=O)NCC(=O)N[C@@H](C)C(=O)N1CCC[C@H]1C(=O)N1CCC[C@H]1C(=O)N1CCC[C@H]1C(=O)N[C@@H](CO)C(N)=O
Turning to B2, the “EC50 hGlucagonR (cAMP formation)” value in assay [1] worked out at 0.132 nM. Also, the “EC50 hGLP-1R (cAMP formation)” value in assay [2] came out at 0.0109 nM.

B3: SEQ ID NO: (30) (peptide)
peptide: H[dS]QGTFTSDLSKQMDSRRAKDFIEWLKNGGPSSGAPPPS-NH2
modifications: N-terminus assumed
SMILES: CC[C@H](C)[C@H](NC(=O)[C@H](Cc1ccccc1)NC(=O)[C@H](CC(=O)O)NC(=O)[C@H](CCCCN)NC(=O)[C@H](C)NC(=O)[C@H](CCCNC(=N)N)NC(=O)[C@H](CCCNC(=N)N)NC(=O)[C@H](CO)NC(=O)[C@H](CC(=O)O)NC(=O)[C@H](CCSC)NC(=O)[C@H](CCC(N)=O)NC(=O)[C@H](CCCCN)NC(=O)[C@H](CO)NC(=O)[C@H](CC(C)C)NC(=O)[C@H](CC(=O)O)NC(=O)[C@H](CO)NC(=O)[C@@H](NC(=O)[C@H](Cc1ccccc1)NC(=O)[C@@H](NC(=O)CNC(=O)[C@H](CCC(N)=O)NC(=O)[C@@H](CO)NC(=O)[C@@H](N)Cc1c[nH]cn1)[C@@H](C)O)[C@@H](C)O)C(=O)N[C@@H](CCC(=O)O)C(=O)N[C@@H](Cc1c[nH]c2ccccc12)C(=O)N[C@@H](CC(C)C)C(=O)N[C@@H](CCCCN)C(=O)N[C@@H](CC(N)=O)C(=O)NCC(=O)NCC(=O)N1CCC[C@H]1C(=O)N[C@@H](CO)C(=O)N[C@@H](CO)C(=O)NCC(=O)N[C@@H](C)C(=O)N1CCC[C@H]1C(=O)N1CCC[C@H]1C(=O)N1CCC[C@H]1C(=O)N[C@@H](CO)C(N)=O
Take B3: the “EC50 hGlucagonR (cAMP formation)” value in assay [1] came out at 1.05 nM. In addition, the “EC50 hGLP-1R (cAMP formation)” value in assay [2] came to 0.0505 nM.

B4: SEQ ID NO: (29) (peptide)
peptide: H[dS]QGTFTSDLSKQMDSRRAHDFIEWLKNGGPSSGAPPPS-NH2
modifications: N-terminus assumed
SMILES: CC[C@H](C)[C@H](NC(=O)[C@H](Cc1ccccc1)NC(=O)[C@H](CC(=O)O)NC(=O)[C@H](Cc1c[nH]cn1)NC(=O)[C@H](C)NC(=O)[C@H](CCCNC(=N)N)NC(=O)[C@H](CCCNC(=N)N)NC(=O)[C@H](CO)NC(=O)[C@H](CC(=O)O)NC(=O)[C@H](CCSC)NC(=O)[C@H](CCC(N)=O)NC(=O)[C@H](CCCCN)NC(=O)[C@H](CO)NC(=O)[C@H](CC(C)C)NC(=O)[C@H](CC(=O)O)NC(=O)[C@H](CO)NC(=O)[C@@H](NC(=O)[C@H](Cc1ccccc1)NC(=O)[C@@H](NC(=O)CNC(=O)[C@H](CCC(N)=O)NC(=O)[C@@H](CO)NC(=O)[C@@H](N)Cc1c[nH]cn1)[C@@H](C)O)[C@@H](C)O)C(=O)N[C@@H](CCC(=O)O)C(=O)N[C@@H](Cc1c[nH]c2ccccc12)C(=O)N[C@@H](CC(C)C)C(=O)N[C@@H](CCCCN)C(=O)N[C@@H](CC(N)=O)C(=O)NCC(=O)NCC(=O)N1CCC[C@H]1C(=O)N[C@@H](CO)C(=O)N[C@@H](CO)C(=O)NCC(=O)N[C@@H](C)C(=O)N1CCC[C@H]1C(=O)N1CCC[C@H]1C(=O)N1CCC[C@H]1C(=O)N[C@@H](CO)C(N)=O
With B4, in assay [1], the “EC50 hGlucagonR (cAMP formation)” value is 0.149 nM. Moreover, in assay [2], the “EC50 hGLP-1R (cAMP formation)” value was 0.028 nM.

B5: SEQ ID NO: (28) (peptide)
peptide: H[Ser(Me)]QGTFTSDLSKQMDSRRAQDFIEWLKNGGPSSGAPPPS-NH2
modifications: N-terminus assumed
SMILES: CC[C@H](C)[C@H](NC(=O)[C@H](Cc1ccccc1)NC(=O)[C@H](CC(=O)O)NC(=O)[C@H](CCC(N)=O)NC(=O)[C@H](C)NC(=O)[C@H](CCCNC(=N)N)NC(=O)[C@H](CCCNC(=N)N)NC(=O)[C@H](CO)NC(=O)[C@H](CC(=O)O)NC(=O)[C@H](CCSC)NC(=O)[C@H](CCC(N)=O)NC(=O)[C@H](CCCCN)NC(=O)[C@H](CO)NC(=O)[C@H](CC(C)C)NC(=O)[C@H](CC(=O)O)NC(=O)[C@H](CO)NC(=O)[C@@H](NC(=O)[C@H](Cc1ccccc1)NC(=O)[C@@H](NC(=O)CNC(=O)[C@H](CCC(N)=O)NC(=O)[C@H](COC)NC(=O)[C@@H](N)Cc1c[nH]cn1)[C@@H](C)O)[C@@H](C)O)C(=O)N[C@@H](CCC(=O)O)C(=O)N[C@@H](Cc1c[nH]c2ccccc12)C(=O)N[C@@H](CC(C)C)C(=O)N[C@@H](CCCCN)C(=O)N[C@@H](CC(N)=O)C(=O)NCC(=O)NCC(=O)N1CCC[C@H]1C(=O)N[C@@H](CO)C(=O)N[C@@H](CO)C(=O)NCC(=O)N[C@@H](C)C(=O)N1CCC[C@H]1C(=O)N1CCC[C@H]1C(=O)N1CCC[C@H]1C(=O)N[C@@H](CO)C(N)=O
Consider B5, for which the “EC50 hGlucagonR (cAMP formation)” value in assay [1] stood at 6.48 nM. In assay [2], the “EC50 hGLP-1R (cAMP formation)” value was determined as 0.128 nM.

B6: SEQ ID NO: (35) (peptide)
peptide: H[dS]QGTFTSDLSKQMDSRRAQLFIEWLKNGGPSSGAPPPS-NH2
modifications: N-terminus assumed
SMILES: CC[C@H](C)[C@H](NC(=O)[C@H](Cc1ccccc1)NC(=O)[C@H](CC(C)C)NC(=O)[C@H](CCC(N)=O)NC(=O)[C@H](C)NC(=O)[C@H](CCCNC(=N)N)NC(=O)[C@H](CCCNC(=N)N)NC(=O)[C@H](CO)NC(=O)[C@H](CC(=O)O)NC(=O)[C@H](CCSC)NC(=O)[C@H](CCC(N)=O)NC(=O)[C@H](CCCCN)NC(=O)[C@H](CO)NC(=O)[C@H](CC(C)C)NC(=O)[C@H](CC(=O)O)NC(=O)[C@H](CO)NC(=O)[C@@H](NC(=O)[C@H](Cc1ccccc1)NC(=O)[C@@H](NC(=O)CNC(=O)[C@H](CCC(N)=O)NC(=O)[C@@H](CO)NC(=O)[C@@H](N)Cc1c[nH]cn1)[C@@H](C)O)[C@@H](C)O)C(=O)N[C@@H](CCC(=O)O)C(=O)N[C@@H](Cc1c[nH]c2ccccc12)C(=O)N[C@@H](CC(C)C)C(=O)N[C@@H](CCCCN)C(=O)N[C@@H](CC(N)=O)C(=O)NCC(=O)NCC(=O)N1CCC[C@H]1C(=O)N[C@@H](CO)C(=O)N[C@@H](CO)C(=O)NCC(=O)N[C@@H](C)C(=O)N1CCC[C@H]1C(=O)N1CCC[C@H]1C(=O)N1CCC[C@H]1C(=O)N[C@@H](CO)C(N)=O
As for B6, the “EC50 hGlucagonR (cAMP formation)” value in assay [1] turned out to be 0.043 nM. Further, the “EC50 hGLP-1R (cAMP formation)” value in assay [2] was 0.0894 nM.

As for HSQGTFTSDLSKQMDSRRAQDFIEWLKNGGPSSGAPPPS-{NH‑CH2‑CH2‑S‑tBu} [SEQ ID NO: (36)], the “EC50 hGlucagonR (cAMP formation)” value in assay [1] came to 0.0458 nM. Moreover, in assay [2], the “EC50 hGLP-1R (cAMP formation)” value came to 0.0189 nM.
